Data published in patent US7256013B2, “Kit for determining the acetylation level of a peptide based on sensitivity of the peptide to peptidase” (Cyclex Co., Ltd., priority 1999, dated 2007).
The star is where a group is joined. AMC = Cc1cc(=O)oc2cc(N*)ccc12; Boc = CC(C)(C)OC(=O)*

Columns and labels:
recombinant SIRT1 = biological target: T1, recombinant SIRT1 (Homo sapiens, UniProt Q96EB6); assay: SIRT1 deacetylase activity assay (FMAP) with Nma-VGAK(Ac)RHSK(Dnp)-NH2 and lysylendopeptidase; assay type: biochemical; settings: serial dilutions of NAD added to the reaction solution; FIG. 7
T1 construct: the first amino acid residue to the 747th residue of SIRT1 (full length) was amplified using this primer set; made in house; host or cells: E. coli BL21 Gold (DE3), vector pGEX-4T-1
T1 sequence (Q96EB6 1-747): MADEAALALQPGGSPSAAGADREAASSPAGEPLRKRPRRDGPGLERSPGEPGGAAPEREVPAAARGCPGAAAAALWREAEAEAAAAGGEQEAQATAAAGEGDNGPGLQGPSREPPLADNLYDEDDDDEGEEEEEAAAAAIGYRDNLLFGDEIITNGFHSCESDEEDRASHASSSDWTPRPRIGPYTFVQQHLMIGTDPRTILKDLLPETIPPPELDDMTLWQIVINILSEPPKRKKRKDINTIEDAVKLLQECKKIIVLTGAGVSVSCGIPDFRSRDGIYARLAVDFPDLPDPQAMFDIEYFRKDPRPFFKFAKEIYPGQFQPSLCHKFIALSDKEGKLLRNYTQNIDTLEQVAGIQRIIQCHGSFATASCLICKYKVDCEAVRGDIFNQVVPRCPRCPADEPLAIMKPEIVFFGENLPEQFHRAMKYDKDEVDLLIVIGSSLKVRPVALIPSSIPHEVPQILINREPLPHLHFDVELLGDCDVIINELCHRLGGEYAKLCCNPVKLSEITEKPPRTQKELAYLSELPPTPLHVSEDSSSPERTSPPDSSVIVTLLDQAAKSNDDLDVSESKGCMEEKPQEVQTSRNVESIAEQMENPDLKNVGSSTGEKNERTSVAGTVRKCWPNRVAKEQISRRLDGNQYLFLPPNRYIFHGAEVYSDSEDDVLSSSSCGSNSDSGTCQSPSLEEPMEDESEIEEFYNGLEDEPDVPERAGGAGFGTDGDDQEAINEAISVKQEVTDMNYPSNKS
Method: Peptide for the SIRT1-activity assay: Nma-VGAK(Ac)RHSK(Dnp)-NH2
5 μl of 0.005 U/μl lysylendopeptidase (LEP) was combined with 90 μl of an enzyme reaction buffer (50 mM Tris-HCl (pH 8.8), 4 mM MgCl2, 0.2 mM DTT) and 1 μl of 10 mM peptide solution for SIRT1-activity assay. 2 μl of 5 mM NAD and 2 μl of each of serial dilutions of a recombinant SIRT1 solution, or alternatively 2 μl of each of serial dilutions of an NAD solution and 2 μl of a solution containing 1 mg/ml recombinant SIRT1 were added at the same time to the mixture. The enzyme reaction and fluorescence assay were performed at 30° C. using 384-well plates for fluorescence assay.
The fluorescence intensity was measured at excitation wavelength 355 nm/fluorescence wavelength 460 nm by using a Wallac 1420 ARVO HTS Multi Label Counter. The measurement was repeated at about 2- to 3-minute intervals for 50 minutes.
It has been reported that the presence of NAD is essential for the deacetylase activity of SIRT1. In order to assess whether the NAD-dependency of SIRT1 activity can be detected using the assay method, an NAD solution was serially diluted and each dilution was added to the reaction solution, and then observation was made for the changes in the fluorescence intensity.

lysylendopeptidase = lysylendopeptidase (Achromobacter lyticus, UniProt P15636); assay: Cleavage of fluorescence-labeled substrate peptide by lysylendopeptidase; assay type: biochemical; settings: 5×10^−6 AU lysylendopeptidase; FIG. 1
Method: (§1) 1 μl of DMSO solution containing 10 mM substrate peptide, Boc-Val-Leu-(Ac)Lys-MCA, was added to 64 μl HDAC reaction buffer (25 mM Tris-HCl pH 7.5) for each assay. The mixture was poured into the wells of a microplate for fluorometry and was incubated at 30° C. Then, 10 μl of histone deacetylase solution was added to each well and the plate was subjected for deacetylation at 30° C. for 60 minutes. After the reaction, 5 μl of peptidase solution that was diluted with 25 mM Tris-HCl (pH 7.5) to an optimal concentration and 20 μl 5× protease reaction buffer were added to each well. The fluorescence intensity was measured every 150 seconds with fluorescence microplate reader. The fluorescence intensity was measured using Wallac 1420 ARVOsx Multi Label Counter (Amersham-Pharmacia Biotech). The composition of the reaction buffer was as follows.
(§2) 5×10^−6 AU lysylendopeptidase or 0.001U plasmin was added to Boc-Val-Leu-Lys-MCA or Boc-Val-Leu-(Ac)Lys-MCA. The Figures show the fluorescence intensity measured at an interval of about 150-seconds.

plasmin = plasmin (Homo sapiens, UniProt P00747); assay: Cleavage of fluorescence-labeled substrate peptide by plasmin; assay type: biochemical; settings: 0.001U plasmin; FIG. 2
Method: as §1, §2

histone deacetylase = assay: Histone deacetylase activity assay with Boc-Val-Leu-(Ac)Lys-MCA and lysylendopeptidase (fluorescence); assay type: biochemical, human; settings: at a concentration of about 200 nM; FIG. 5
Method: MCF7 cells were washed with PBS, and then centrifuged. Precipitated cells were suspended in 4 ml lysis buffer and were left standing 15 minutes on ice. 5 ml lysate buffer was obtained by washing the centrifuge tube with 1 ml lysis buffer. The lysate was loaded on 15 ml sucrose cushion buffer in a centrifuge tube for type-07 rotor. Then, The tubes were centrifuged at 1300 g for 20 minutes and precipitated cells were recovered with 1.5 ml of the lysis buffer. After washing the cells, the cells were suspended in 700 μl low-salt buffer. The cells were sonicated for 30 seconds, and then allowed to stand still on ice for 30 minutes. The lysate was centrifuged at 100,000 g for 40 minutes, and the supernatant was collected to recover crude histone deacetylase. The pooled crude histone deacetylase was placed in a 1.5-ml tube, and was dialyzed overnight against a solution containing 50% glycerol, 150 mM NaCl, and 20 mM Tris (pH 7.5). The dialysate was substituted 3 times with fresh buffer. […]
1 μl of DMSO solution containing 10 mM substrate peptide, Boc-Val-Leu-(Ac)Lys-MCA, was added to 64 μl HDAC reaction buffer (25 mM Tris-HCl pH 7.5) for each assay. […] The fluorescence intensity was measured every 150 seconds with fluorescence microplate reader. The fluorescence intensity was measured using Wallac 1420 ARVOsx Multi Label Counter (Amersham-Pharmacia Biotech). […]

plasmin, sequence (P00747 581-810 limits assumed, species assumed): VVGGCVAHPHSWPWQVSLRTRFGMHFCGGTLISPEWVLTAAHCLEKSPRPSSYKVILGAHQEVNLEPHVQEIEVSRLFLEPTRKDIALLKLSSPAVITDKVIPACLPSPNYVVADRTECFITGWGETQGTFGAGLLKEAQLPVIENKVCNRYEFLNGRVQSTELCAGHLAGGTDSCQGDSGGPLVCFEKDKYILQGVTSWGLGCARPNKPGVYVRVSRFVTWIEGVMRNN
plasmin, sequence (P00747 97-580 partner limits assumed, species assumed): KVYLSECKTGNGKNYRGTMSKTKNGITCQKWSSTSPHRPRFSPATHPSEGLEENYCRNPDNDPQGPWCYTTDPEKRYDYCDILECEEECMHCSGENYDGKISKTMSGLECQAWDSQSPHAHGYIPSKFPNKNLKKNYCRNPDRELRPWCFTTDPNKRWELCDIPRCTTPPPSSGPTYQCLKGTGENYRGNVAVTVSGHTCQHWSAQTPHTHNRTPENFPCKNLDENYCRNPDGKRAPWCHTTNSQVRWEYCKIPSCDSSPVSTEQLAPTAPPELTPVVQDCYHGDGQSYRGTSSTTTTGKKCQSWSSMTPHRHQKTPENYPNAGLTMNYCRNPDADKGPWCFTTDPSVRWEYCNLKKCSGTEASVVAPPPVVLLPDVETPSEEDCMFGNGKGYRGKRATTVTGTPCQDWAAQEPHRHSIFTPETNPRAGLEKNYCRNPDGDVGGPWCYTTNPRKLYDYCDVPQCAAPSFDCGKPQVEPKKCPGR
lysylendopeptidase, sequence (P15636 206-473 limits assumed, species assumed): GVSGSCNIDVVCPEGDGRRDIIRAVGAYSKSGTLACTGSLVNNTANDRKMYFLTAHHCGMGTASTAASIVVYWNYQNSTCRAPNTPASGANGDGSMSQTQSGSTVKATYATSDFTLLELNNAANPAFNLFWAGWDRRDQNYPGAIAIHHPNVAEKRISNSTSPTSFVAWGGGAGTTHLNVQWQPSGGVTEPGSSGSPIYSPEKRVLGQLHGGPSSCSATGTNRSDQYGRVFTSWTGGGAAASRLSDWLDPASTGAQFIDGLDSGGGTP

effect on the deacetylation reaction (inhibition) (histone deacetylase)	Compound	fluorescence intensity (deacetylation activity of recombinant SIRT1) (recombinant SIRT1)	peptide cleavage by lysylendopeptidase (lysylendopeptidase)	peptide cleavage by plasmin (plasmin)
–	NC(=O)c1ccc[n+]([C@@H]2O[C@H](COP(=O)([O-])OP(=O)(O)OC[C@H]3O[C@@H](n4cnc5c(N)ncnc54)[C@H](O)[C@@H]3O)[C@@H](O)[C@H]2O)c1 [NAD]	increased in an NAD concentration-dependent fashion	–	–
–	Boc-Val-Leu-(Ac)Lys-MCA (VLK; HELM PEPTIDE1{[CC(C)(C)OC(=O)[*:2]].V.L.K.[Cc1cc(=O)oc2cc(N[*:1])ccc12]}|PEPTIDE2{[ac]}$PEPTIDE1,PEPTIDE2,4:R3-1:R2$$$V2.0; SMILES CC(=O)NCCCC[C@H](NC(=O)[C@H](CC(C)C)NC(=O)[C@@H](NC(=O)OC(C)(C)C)C(C)C)C(=O)Nc1ccc2c(C)cc(=O)oc2c1) [fluorescence labeled substrate peptide with an acetylated lysine residue]	–	did not cleave	did not cleave
–	Boc-Val-Leu-Lys-MCA (Boc-Val-Leu-Lys-{AMC}) [fluorescence labeled substrate peptide, non-acetylated]	–	digested	digested
almost completely inhibited	CC(/C=C/C(=O)NO)=C\[C@@H](C)C(=O)c1ccc(N(C)C)cc1 [Trichostatin A]	–	–	–
